Assay: soluble on expression in E. coli; label from the status in PepcDB or PDB records

Sequence | soluble on expression in E. coli
MSLLRALPEVAEPEGVDFIEIATGRLGETIRVLHQLGFRLGGHHCSKQDYQVWTQGDVRIVVCDRGVTGAPTTISAMGFDTPDPEAAHARAELLRAQTIDRPHIEGEVDLKGVYAPDGVELFFAGPSPDGMPEWLPEFGVEKQEAGLIEAIDHVNFAQPWQHFDEAVLFYTALMALETVREDEFPSPIGLVRNQVMRSPNDAVRLLLSVAPEDGEQGDFLNAAYPEHIALATADIVAVAERARKRGLDFLPVPENYYDDVQARFDLPQEFLDTLKENHLLYDRDENGEFLHFYTRTLGTLFFEVVERRGGFAGWGETNAPVRLAAQYREVRDLERGIPEGHHHHHH | soluble
MNLKAMDAILEDCCDIVCSDYLPSAMIKSMCIVAERINNLNKAVSLFTSNPAKAVGIYDERGSIKENKKADLVLVDIDSEYPKVVNTIVNGKTVYKRELEHHHHHH | not soluble
GPGSSLMFSRPPSKLSGAPTREDLDEIIAEEVREWVAKMVGVKHNADVWSMPNFVDALRSGVLLHVLLQKMESPPVSDEDLKLPKRTTGFFVRDNVATFLTTAKSRYDLVDAQLFTVSDLVDGKNDRQVVTCLMSIARIAYSAGAIK | not soluble
SLENLATAPVNQIQETISDNCVVIFSKTSCSYCTMAKKLFHDMNVNYKVVELDLLEYGNQFQDALYKMTGERTVPRIFVNGTFIGGATDTHRLHKEGKLLPLVHQCYLKKSKRKEFQ | soluble
MSLKITAADVVVTSPGRNFVTLRITTEDGLTGLGDATLNGRELAVEAYLREHVAPLLLGRDAHAVEDTWQYLYRGAYWRRGPVTMAAVAAVDMALWDIKGKAAGMPVYQLLGGACRTGALAYGHASGRDIPELLDSVREHLADGFRAVRIQSGIPGLDSVYGVAASAAGDGDRYDYEPARRTGAAHPRPTEETWDTRAYLRHMPTVFEAVRHTFGPELPLLHDGHHRMTPIQAARLGKDLEPYDLFWLEDATPGEDQGALRLIREHTTTPLAIGEVFNSVHDYTTLLQERLIDYVRSAVTHTGGITAVRKLLDMAAVYGIKSGMHGPTDISPVGMAAALHLDLAVHNFGIQEYMRHAPDTLEVFRTSYRFEDGLLHPGEAPGLGVELDDGAAARFPYEPAYLPVNRLSDGTVHDWEGHHHHHH | not soluble
AVKGLGKPDQVYDGSKIRVGIIHARWNRVIIDALVKGAIERMASLGVEENNIIIETVPGSYELPWGTKRFVDRQAKLGKPLDVVIPIGVLIKGSTMHFEYISDSTTHALMNLQEKVDMPVIFGLLTCMTEEQALARAGIDEAHSMHNHGEDWGAAAVEMAVKFGKNAF | soluble
VTLRVVPESLAGASAAIEAVTARLAAAHAAAAPFIAAVIPPGSDSVSVCNAVEFSVHGSQHVAMAAQGVEELGRSGVGVAESGASYAARDALAAASYLSGGL | not soluble
MSLSNNTINIALIGYGFVGKTFHAPLIRSVPGLNLAFVASRDEEKVKRDLPDVTVIASPEAAVQHPDVDLVVIASPNATHAPLARLALNAGKHVVVDKPFTLDMQEARELIALAEEKQRLLSVFHNRRWDSDYLGIRQVIEQGTLGAVKHFESHFDRFRPEVRVRWREQNVPGSGLWFDLGPHLIDQALQLFGLPQSVQGNIATLRDGAEINDWAHVVLNYPAHKVILHCSMLVAGGSSRFTVHGDKGSVIKARADQQESQLLAGVVPGSADWGQDDDPLVIYDASLQAHAQATPQGDQRQYYMLIRDALKGQIANPVPPVEALAVMAVLEAAVRSAESGMVQTLDLSDDERNTLREGHHHHHH | soluble
MAHHHHHHMRRYVKPSNIVGANISHPVDIFKMTVEHRVQCGSCHKVRYTRETDCCLSLPIPLDPNLKNSDGNPKQTEEEIFASRPHISLDACLGSLMQATDIDCRCSACGIPVTYCKTTRLRTFPDVLPIFLRRAQFDMETMSVRKLDVFVDVPLELDLEFLRGKGLQSDEVSMPEAREDLPHKPTSSSMKTVDEEALAMLLSMGIEETVARYALLQTGMNAERAVDYVFSRENIAEEAGLAEISTTASESQPVHVLDGPAKYRLHAMISHVGASAKTGHYVCHICDAQTGKWLLFNDEKVAESLNPPFSMAFLYFYKRVGK | soluble
MTFVPLNPIPLKDRTSMIFLQYGQIDVLDGAFVLIDKTGIRTHIPVGSVACIMLEPGTRVSHAAVRLASTVGTLLVWVGEAGVRVYSSGQPGGARADKLLYQAKLALDDDLRLKVVRKMYELRFREPPPARRSVEQLRGIEGSRVRATYALLAKQYGVKWHGRNYDPKDWEKGDVVNRCISAATSCLYGISEAAILAAGYAPAIGFIHSGKPLSFVYDIADIIKFESVVPKAFEIAARHPAEPDKEVRLACRDIFRSSKLTGKLIPLIEEVLAAGEIEPPQPAPDMLPPAIPEPESLGDSGHRGHG | not soluble
MIVSMIAALANNRVIGLDNKMPWHLPAELQLFKRATLGKPIVMGRNTFESIGRPLPGRLNIVLSRQTDYQPEGVTVVATLEDAVVAAGDVEELMIIGGATIYNQCLAAADRLYLTHIELTTEGDTWFPDYEQYNWQEIEHESYAADDKNPHNYRFSLLERVK | soluble
MALICELDEQWSYVGSKARLHWLWYAYNTKTGGVLAYTFGPRTDQTCRELLALLTPFNIGMLTSDDWDSYGRVVPKNKHLTGKIFTQRIERNNLTLRTHIKRLARKQSASHAQLRSTKK | not soluble
MPKRKLKTPESTETTKICKKNDNFSDFWSEKLDEIGSAHLADTKSRTKSAVKHELTGIGSSSIYKGTRDLQLPKSEDLSNFGWNEGVLEHLQVLLEEIEVDEKKEEQIEAERGAILKFTAEYRDLLAITGDQGGYRSIYCAHIIQHLIRNKNLIIGNKRKLEIASTQEGGADEETIESCRDSGFVRPVVLVLCAFKKDAYDIINRLRRILHGDDEGKSEVWNKNRFEEEYSGPTELPTTRADFPDDHKELLLGNNDDAFRIGLAISKKVLKLYEKFEKADILVCSPLGLRMILNGDDGNEAHLISSINMTIVDRTDIMLQQNWENLQLIFSHLHSQPSKIDVDISRVRKLYLDGQSRHFSQLLMFSRYSHELFTSLMLQNSQNHRGLVIAKPKQSGTLSNIEIPLCQELHKFEVKDPNETSDLRFKYFVDKIMPSLIPRTLIVIPSYFDFVRVRNHLKKAEESFVMCHEYATRAKVDRAREMFFHERKSYLVVTERWYFFNRRHLTGVHRVVFYQLPSHPLFYSEFINMSDAETSQRFLAVLLLCKYDRIRLENTFGTEMAAAVMSNKQAVQAIVSQ | not soluble
MINHKIFPTADAVVKSLADDMLAYSQQGQPVHISLSGGSTPKMLFKLLASQPYANDIQWKNLHFWWGDERCVAPDDAESNYGEANALLFSKINMPAQNIHRILGENEPQAEAERFAQAMAHVIPTENGTPVFDWILLGVGADGHTASLFPGQTDYADANLSVVASHPESGQLRVSKTAKVLQAAKRISYLVLGAGKAEIVEQIHTTPAEQLPYPAAKIHSTSGVTEWYLDSDAAAKIA | soluble
MSILEQVQPIETMLPERYYTMSTEDMEKRVREIKEKMGKMLFIPGHHYQKDEVVQFSDAVGDSLQLAQVAASNKDAKYIVFCGVHFMAETADMLTTDDQVVILPDMRAGCSMADMADIEQTERAWKELTKLFGDTMIPLTYVNSTAAIKAFCGRNGGATVTSSNAKQMVSWAFTQKERLVFLPDQHLGRNTAYDLGIPLDKMAVWDPHTDSLEYDGDIEEIQVILWKGHCSVHQNFTVKNIESVRKNHSDMNIIVHPECCYEVVAASDYAGSTKYIIDMIESAPPGSKWAIGTEMNLVNRIIQQHPDKEIVSLNPFMCPCLTMNRIDLPHLLWALETIERGEEINVISVDKQVTAEAVLALNRMLERV | not soluble
MIEQFNFDIRLIFAILNGKVSAAINRKLYRNFRQNGLEISPEQWTVLIFLWEKDGVTQQELCNATFKDKPSMTRLIDNMERQHLVVRISDKKDRRTNLIHLTKDGKELEEKARIIAGQTLKEALHGITLEELSIGQEVLKKVFYNTKD | not soluble
MSKTFRVSKVTSGNSKAIQQTKPITILLMGVDTGSKGRKETWEGNSDTMILVTVNPKTKRTTMTSLERDLLADVEGSGEAKLNSAYAEGGADLAISTIQKVLDIDIDYYALINMHGMIDLVDAVGGIEVTNHFDFPISIAENEPEFQAKVEPGTHKINGEQALVYSRMRYDDPDGDYGRQKRQREVIQKIVAKLLKMDSIGSYKKILSAVSSNVQTSINLGDSTTLRGLMGYSEALKNIKSYQLAGSDAMINGGSYQVASTEDILKVQNRIKKEVGKKGVSESKLKTSLVLNDFGTSSYVSDDFVNSTGSYEAGPSEATGGGSVSTYYGGTTYGNSYTENTSNYVQDQATTAPTINYNGSGVTTYNLVPAAQLEHHHHHH | soluble
MGSDKIHHHHHHMIYLDQAASSFPKPKEVAEAMVAAVNEYGANPGRGGHRLATQARVTIDETRELLKTLFNAPSKKHVWFYQNATGALNQALFGFPFKEGDHVVSTALEHNSVRRPLEQLRERNGLVITYAQPDEEGIISPEKIAQACTDQTKAIVLSHGSNVTGAYLELEKIGEMAEAHGIVFIVDASQTAGVIDIDMKRDRISMLACAGHKGLLGPQGTGVLIVADDYGLTPLSYGGTGSYSELIDQPSQWPDRYESGTLNTPGIAGLKAGIEYVLDNGVAQIFAHEWALTERLLKGLGAQKVDVYGPPLPRKRLGVVSFRLSGFDSHEVALILDEHYQIAVRAGLHCAPMTHETLQTTDTGLIRVSVGPFNTEREVDQLLQAVMDIQQAFTS | not soluble
MVSCQGTRPCIVNLLTMPSEDKLGEEISTRVINEYSKLKSACRPIIRPSGIREWTILAGVAAINRDGGANKIEILSIATGVKALPDSELQRSEGKILHDCHAEILALRGANTVLLNRIQNYNPSSGDKFIQHNDEIPARFNLKENWELALYISRLPCGDASMSFLNDNCKNDDFIKIEDSDEFQYVDRSVKTILRGRLNFNRRNVVRTKPGRYDSNITLSKSCSDKLLMKQRSSVLNCLNYELFEKPVFLKYIVIPNLEDETKHHLEQSFHTRLPNLDNEIKFLNCLKPFYDDKLDEEDVPGLMCSVKLFMDDFSTEEAILNGVRNGFYTKSSKPLRKHCQSQVSRFAQWELFKKIRPEYEGISYLEFKSRQKKRSQLIIAIKNILSPDGWIPTRTDDVK | not soluble
KATRDSSTLNVDTYVNWIKRVFRPQRLRLLERKELVVEEADYEYALGEIANVRSDAQQMLGSRIMSRPLPFIWLFGGDLSSQKELSVRVDTMVEYLHNTTDNLIFAKLMDVPPLPTTLSHWLPKDKRS | not soluble
MGSDKIHHHHHHMFSIKRVIYYQELIRVGSFTKAAKALNISQAFLSQEIARLEIETERKLINRTTRQFSLTPFGQIFADKIQGMIKEHYELEQFVSSYEESTDGALLVGVIPIFNRLAHYNMFNLFQKAYPNIDISFIDGVSTDLLERVRNGEIHLSFSTPFDEYLNDPLFHHTICQIDDIVAVMATSHPLADNKTLSLPQLVKEKLIVPQKGTGEHAAVSESFTRQGINPSYFRECSNMDIIMDLVMNLSGVVFLCSSVAKSLTAYDVAVIPLEEQLKRTFAISYLKRSVNIPMVRLFLDFLQDYSESVR | not soluble
MIISAEGDVSIHHCFEAMLISLQEDYRQNTLRQLSRDDIKAGINYVKHYGKYKERTVRVLITALEAPQLYTACFSSNHGIKELAYQLEALGENRTRITYSYDYHPLDIFQKANQFIVGKLFKKSLERQSQAQLAALIQYAKQLQQPSSL | not soluble
MGSDKIHHHHHHMHLDNEADHHSENKAEAPGIQPAVTRNVADISPQIAQCAVEWLVELQAADHDEATHEAFQRWLAAHPDHKLAWQHIETVNTRFNGLTSPLGSAVAKAVLTPRRSLKRRQIIKTLVVILFAGSTGWWADEKIPWRAWTADERTHIGQRRNITLADGSRVVLNTDTAINIRFTANERRLQLVRGEILVTTNQDSASIVRPFIVEIAQSELRPLGTRFTIHQQTTSNRLSVFEGAVEIRLRQDINYRHIVQAGEQVDFSNQGIHEIHPADDTSTAWSNGMIIASSMRLADFLAELDRHRPGKLNCDPAVADLRVSGTYPLTDPEDILDALQTTLPVKIQYFTRYWVTVRPAS | not soluble

Source: the DeepSol protein solubility set
